Substitutions are numbered along the chain they refer to. Blank lines part the entries; values can stand above or below the binder they belong to.
Tests used:
[1] = target: T1, mouse ALK2(WT)-V5-His expressed in HEK293A cells (mouse, UniProt P37172 21-509); assay: conclusion from BMP-specific luciferase reporter assay in transfected HEK293A cells
T1 construct: Full-length receptor overexpressed by transient transfection; also called pcDEF3/mouse ALK2(WT)-V5-His; not shown: V5-His tag of the pcDEF3 construct
T1 sequence: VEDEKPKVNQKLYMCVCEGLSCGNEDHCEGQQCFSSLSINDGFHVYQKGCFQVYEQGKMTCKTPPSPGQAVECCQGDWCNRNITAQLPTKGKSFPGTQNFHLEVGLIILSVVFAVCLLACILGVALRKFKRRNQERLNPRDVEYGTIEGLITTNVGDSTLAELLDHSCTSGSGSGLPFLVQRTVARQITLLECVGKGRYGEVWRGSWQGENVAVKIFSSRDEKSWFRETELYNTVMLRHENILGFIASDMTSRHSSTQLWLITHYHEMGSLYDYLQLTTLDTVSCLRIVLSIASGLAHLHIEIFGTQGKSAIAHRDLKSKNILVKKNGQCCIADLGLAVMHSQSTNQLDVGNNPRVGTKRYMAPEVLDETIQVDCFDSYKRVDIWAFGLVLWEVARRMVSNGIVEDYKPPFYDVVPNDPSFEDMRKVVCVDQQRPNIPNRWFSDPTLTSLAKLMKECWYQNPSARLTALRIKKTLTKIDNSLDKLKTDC

[2] = target: T2, human ALK2(WT)-V5-His expressed in HEK293A cells (human, UniProt Q04771 21-509); assay: as above
T2 construct: Full-length receptor overexpressed by transient transfection; also called pcDEF3/human ALK2(WT)-V5-His; human ALK2(WT)-VS-His; not shown: V5-His tag of the pcDEF3 construct
T2 sequence: T1 sequence with V1M, Q10P, I121L, E162D, S310P

[3] = target: T3, rat ALK2(WT)-V5-His expressed in HEK293A cells (rat, UniProt P80201 21-509); assay: as above
T3 construct: the end 509 for rat is meant as the end of the entry; also called rat wild-type ALK2; pcDEF3/rat ALK2(WT)-V5-His; not shown: V5-His tag of the pcDEF3 construct
T3 sequence: T1 sequence with V1M, K5E, Q10P, I39V, H44R, I83V, Q86R, T97S, L118F

[4] = target: T4, ALK2 expressed in mice (C57BL/6 mouse newborn organs, tissue sections) (mouse, UniProt P37172 21-509); assay: immunohistological staining of frozen sections of mouse newborns; 10 µg/ml primary antibody
T4 construct: Endogenous protein in paraformaldehyde-fixed frozen or paraffin sections of mouse newborns; not a purified protein; also called mouse ALK2 (endogenous)
T4 sequence: T1 sequence
Method: C57BL/6 mouse newborns were each fixed in a 4% paraformaldehyde-phosphate buffer solution for 2 days and then freeze-embedded in O.C.T Compound (manufactured by Sakura Finetek Japan Co., Ltd.), and frozen sections were prepared with a thickness of 5 μm using a cryostat (manufactured by Leica Biosystems Nussloch GmbH, Cat. #CM3050S). The sections were washed with PBS three time and reacted with an endogenous enzyme activity blocking solution (manufactured by Vector Laboratories, Inc., Cat. #SP-6000) for 10 minutes. […] On the following day, the sections were washed with PBS-T three times and reacted with HRP-conjugated anti-rat IgG antibody ImmPRESS Reagent (manufactured by Vector Laboratories, Inc., Cat. #MP-7444) as a secondary antibody for 30 minutes at 37° C. Then, the sections were washed with PBS-T three times, and DAB color development (manufactured by Vector Laboratories, Inc., Cat. #SK-4100) was performed. After washing with distilled water, the sections were counter-stained with hematoxylin, mounted on a glass cover according to a standard method, and observed under BZ-9000 (manufactured by Keyence Corp.).

[5] = target: T5, Human ALK2-His (Cat. #10227-H088) from Sino Biological Inc. (human, UniProt Q04771 21-123); assay: ELISA of hybridoma culture supernatant on antigen immobilized at 1 µg/ml (selection of hybridomas)
T5 construct: Bought recombinant protein; also called the antigen; not shown: His tag
T5 sequence: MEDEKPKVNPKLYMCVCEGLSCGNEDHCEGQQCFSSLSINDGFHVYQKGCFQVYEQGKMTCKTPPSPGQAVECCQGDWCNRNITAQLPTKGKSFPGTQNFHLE
Method: One week after the cell fusion, using each culture supernatant, clones recognizing human ALK2-His used as the antigen were selected by the enzyme-linked immunosorbent assay (ELISA), and clones recognizing human ALK1-His (Sino Biological Inc.) were excluded. ELISA was performed as follows.
First, the antigen diluted to 1 μg/ml with PBS was immobilized onto a 96-well ELISA plate (NUNC, Cat. #442404) for 2 hours at room temperature or overnight at 4° C. The immobilized solution was removed, and the plate was blocked with a 0.5% skim milk solution dissolved in PBS for 30 minutes at room temperature. Next, the above-described culture supernatant of hybridomas was added, and the plate was left for 1 hour at room temperature. After the plate was washed, an ALP-labeled anti-rat IgG antibody (SAB, Inc.) diluted with a 0.5% skim milk solution to 1:2500 was added, and the plate was further left for 1 hour at room temperature. After the plate was washed, a phenyl phosphate substrate was reacted at room temperature, and then absorbance at a wavelength of 492 nm was measured.

[6] = target: T6, human ALK2-EGFP expressed in HEK293A cells (human, UniProt Q04771 21-509); assay: conclusion from flow cytometry competition with labeled A2-27D on HEK293A cells expressing human ALK2-EGFP
T6 construct: also called pcDEF3/human ALK2-EGFP; not shown: EGFP fused to ALK2
T6 sequence: T1 sequence with V1M, Q10P, I121L, E162D, S310P
Method: In the same manner as in Example 3, HEK293A cells were transiently transfected with pcDEF3/human ALK2-EGFP using Lipofectamine 2000 (manufactured by Thermo Fisher Scientific Inc.). After 2.5 hours, the medium was replaced with fresh 10% FBS-containing DMEM medium, and the cells were cultured overnight. On the following day, […] each of the cell suspensions adjusted to 1×10⁶ cells/mL was dispensed into a 1.5-mL microfuge and centrifuged at 500 g for 5 minutes, and then the supernatant was removed. To the cells, 100 μL of a mixed solution of Alexa fluor 647-labeled A2-27D diluted to 1 μg/mL and 10 μg/mL purified IgG was added, and the cells were left for 30 minutes at 4° C. After the cells were washed with PBS three times, fluorescence was detected by a flow cytometer (BD Accuri C6; manufactured by BD Biosciences). The intensity of EGFP expressed by the cells and the fluorescence intensity of stained Alexa flour 647 were plotted.

- binding result [1]: binds
- binding result [2]: binds
- binding result [3]: binds
- binding result [4]: binds
- binding result [5]: binds
- binding result [6]: binds
B1: rat anti-human ALK2 monoclonal antibody produced by the hybridoma #200 (antibody, V domains shown)
VH: QVKLLQSGAALVKPGDSIRMSCKASGYTFTDYIIHWVKQSHGKSLEWIGYINPYSGGTNYNEKFKSKATLTVDKSSSTAYMEFCRLTSEDSAIYYCVRRGHDGTGFDYWGQGVMVTVSS
VL: DVVMTQTPVSLPVSLGGQASISCRSSQSLVHSNGETYLHWYLQKPGQSPQLLIYRVSNRFSGVPDRFSGSGSGTDFTLKLSRVEPEDLGDYYCLQSTHLPLTFGSGTKLEIKR
notes: Rat monoclonal antibody from a hybridoma; also called clone #200; ALK2_#200

- binding result [5]: binds
B2: rat anti-human ALK2 monoclonal antibody produced by the hybridoma #109 (antibody, V domains shown)
VH: EVQLVESGGDLVQPGRSMKLSCAASGFTFSNYGMAWVRQAPTKGLEWVATISYDGSGTYYRDSVEGRFTISRDNAKITLYLQMNSLRSEDTATYYCTRHGYSRVPYFDYWGQGVMVTVSS
VL: NIVLTQSPATLSVTPGESVSLSCRASQSISTNIHWYQQKSNESPRLLIKYASQSISGIPSRFSGSGSGTDFTLTINRVESEDFSIYYCQQSYSSQLTFGSGTKLEIKR
notes: Rat monoclonal antibody from a hybridoma

From patent US20220267453A1 (SAITAMA MEDICAL UNIVERSITY, published 2022)
